In PMC11098746 (2024):

Assays:
Experiment in all cases: AVEXIS screen signal:noise (double-corrected)
[1] = target: ADP386
[2] = target: T1, ADP381
T1 chain: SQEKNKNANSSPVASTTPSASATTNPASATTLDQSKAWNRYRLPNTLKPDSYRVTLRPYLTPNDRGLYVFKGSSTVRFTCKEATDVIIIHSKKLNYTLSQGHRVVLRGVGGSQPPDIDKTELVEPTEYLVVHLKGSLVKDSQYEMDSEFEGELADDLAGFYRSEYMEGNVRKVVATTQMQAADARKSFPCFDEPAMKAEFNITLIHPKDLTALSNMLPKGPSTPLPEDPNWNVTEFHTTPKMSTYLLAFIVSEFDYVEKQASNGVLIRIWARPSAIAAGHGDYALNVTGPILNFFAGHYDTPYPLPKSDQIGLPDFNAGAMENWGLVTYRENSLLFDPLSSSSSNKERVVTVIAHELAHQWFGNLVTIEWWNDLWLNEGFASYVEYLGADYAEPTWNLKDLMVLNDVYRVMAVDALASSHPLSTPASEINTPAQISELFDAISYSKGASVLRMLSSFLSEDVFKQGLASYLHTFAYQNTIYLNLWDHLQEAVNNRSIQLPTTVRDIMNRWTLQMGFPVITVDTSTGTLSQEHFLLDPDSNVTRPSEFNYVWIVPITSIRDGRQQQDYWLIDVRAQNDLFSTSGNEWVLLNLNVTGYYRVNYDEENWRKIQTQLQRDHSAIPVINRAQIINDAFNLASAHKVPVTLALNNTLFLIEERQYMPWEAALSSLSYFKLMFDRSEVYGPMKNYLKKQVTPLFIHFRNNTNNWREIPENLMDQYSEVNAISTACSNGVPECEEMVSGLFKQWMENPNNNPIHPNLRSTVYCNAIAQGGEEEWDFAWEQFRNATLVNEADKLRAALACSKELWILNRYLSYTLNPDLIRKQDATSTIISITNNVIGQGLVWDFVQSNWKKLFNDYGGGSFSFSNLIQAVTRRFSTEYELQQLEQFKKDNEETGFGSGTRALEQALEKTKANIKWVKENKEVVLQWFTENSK

[3] = target: ADP123
[4] = target: T2, ADP385
T2 chain: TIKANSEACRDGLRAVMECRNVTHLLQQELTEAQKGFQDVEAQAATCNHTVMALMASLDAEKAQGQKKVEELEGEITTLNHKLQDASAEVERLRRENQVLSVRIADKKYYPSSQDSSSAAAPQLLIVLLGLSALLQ

[5] = target: T3, ADP377
T3 chain: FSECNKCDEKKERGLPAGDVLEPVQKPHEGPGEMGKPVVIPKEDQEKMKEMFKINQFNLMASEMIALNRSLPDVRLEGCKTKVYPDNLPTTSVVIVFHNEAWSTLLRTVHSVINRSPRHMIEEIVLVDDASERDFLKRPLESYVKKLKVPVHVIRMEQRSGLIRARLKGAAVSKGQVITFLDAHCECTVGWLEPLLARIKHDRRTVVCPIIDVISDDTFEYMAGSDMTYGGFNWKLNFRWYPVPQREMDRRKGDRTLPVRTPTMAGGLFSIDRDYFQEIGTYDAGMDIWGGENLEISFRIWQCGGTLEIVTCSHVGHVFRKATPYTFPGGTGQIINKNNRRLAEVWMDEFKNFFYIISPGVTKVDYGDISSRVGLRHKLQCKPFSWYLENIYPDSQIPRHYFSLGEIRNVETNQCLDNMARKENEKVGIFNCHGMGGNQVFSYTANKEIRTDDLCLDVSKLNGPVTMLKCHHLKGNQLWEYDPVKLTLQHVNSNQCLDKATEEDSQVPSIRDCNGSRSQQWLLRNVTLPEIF

[6] = target: T4, ADP292
T4 chain: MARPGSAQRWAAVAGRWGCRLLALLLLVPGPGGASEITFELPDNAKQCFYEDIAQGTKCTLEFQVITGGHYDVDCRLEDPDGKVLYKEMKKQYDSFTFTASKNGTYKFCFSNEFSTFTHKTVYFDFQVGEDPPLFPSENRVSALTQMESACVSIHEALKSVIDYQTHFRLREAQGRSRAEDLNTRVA

[7] = target: ADP099
Sequence of ADP099 (P02786 89-760): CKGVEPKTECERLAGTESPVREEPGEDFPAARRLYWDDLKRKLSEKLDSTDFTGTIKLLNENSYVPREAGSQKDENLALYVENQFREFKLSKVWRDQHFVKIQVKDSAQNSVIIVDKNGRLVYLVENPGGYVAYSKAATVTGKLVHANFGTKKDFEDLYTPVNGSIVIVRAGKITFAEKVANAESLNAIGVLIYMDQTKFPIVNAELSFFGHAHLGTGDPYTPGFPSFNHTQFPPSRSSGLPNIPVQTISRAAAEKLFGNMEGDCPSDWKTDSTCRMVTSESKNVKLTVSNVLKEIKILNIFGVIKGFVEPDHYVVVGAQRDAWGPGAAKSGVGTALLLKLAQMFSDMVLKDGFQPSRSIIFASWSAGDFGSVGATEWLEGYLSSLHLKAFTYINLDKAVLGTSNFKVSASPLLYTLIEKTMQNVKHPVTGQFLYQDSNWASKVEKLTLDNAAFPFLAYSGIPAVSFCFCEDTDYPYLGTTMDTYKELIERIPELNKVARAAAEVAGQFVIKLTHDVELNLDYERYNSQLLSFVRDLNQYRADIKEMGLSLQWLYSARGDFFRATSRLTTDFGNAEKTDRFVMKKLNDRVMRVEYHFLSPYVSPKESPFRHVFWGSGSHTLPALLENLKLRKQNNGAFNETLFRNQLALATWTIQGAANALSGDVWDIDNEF

[8] = target: T5, ADP106
T5 chain: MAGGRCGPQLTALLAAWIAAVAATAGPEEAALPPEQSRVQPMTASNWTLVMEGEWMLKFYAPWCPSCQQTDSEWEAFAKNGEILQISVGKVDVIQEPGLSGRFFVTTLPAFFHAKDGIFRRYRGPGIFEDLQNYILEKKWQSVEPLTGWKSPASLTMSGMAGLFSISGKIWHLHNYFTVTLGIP

[9] = target: T6, ADP379
T6 chain: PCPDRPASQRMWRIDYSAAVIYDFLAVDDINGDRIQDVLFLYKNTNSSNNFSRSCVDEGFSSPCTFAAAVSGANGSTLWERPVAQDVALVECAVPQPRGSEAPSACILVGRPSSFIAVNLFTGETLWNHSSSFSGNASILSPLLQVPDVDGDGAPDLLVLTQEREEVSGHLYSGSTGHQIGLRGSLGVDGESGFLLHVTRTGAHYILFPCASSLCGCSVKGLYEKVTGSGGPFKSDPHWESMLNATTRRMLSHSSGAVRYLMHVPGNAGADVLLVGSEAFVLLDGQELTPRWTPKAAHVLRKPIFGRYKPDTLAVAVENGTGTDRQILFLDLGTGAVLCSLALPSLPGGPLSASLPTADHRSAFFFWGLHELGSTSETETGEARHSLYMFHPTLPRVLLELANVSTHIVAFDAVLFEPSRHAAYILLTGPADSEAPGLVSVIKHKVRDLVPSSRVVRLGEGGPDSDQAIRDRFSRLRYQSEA

B1: ADP237 (protein)
chain: TKKKVSVSEINFDSAVDDVQWCGNNHMTVLVKTVKGRLYRSSDGGKIWTNIAGNLADKENNKADPSSNHMNEMTTVDLIMVNSVNKNIVLIIGNQKNHYISEDSGETFRLLNYQNKINFWQFHSTKTHWALVSSWTEACYSNDDNSGECMQTLSLTKDLGRTFQLIDIYVVQFNWGDKESHLEDTIYYTRHKNRNGHQQRFSGWSKDVDFVATHNFGKSVDVLVKQGNKFLISNGYIFVAKLNDVIKQTVNMMVSTDGGKTFNKANLPENIHEKSYTVLDTSEGSIMLHVNHGTSSEKINTGNVYISDASGLNYALSLPNNIRTSSGECEFDRVLSLDGVYIANFLDVNNEIKDEDLRFQNFKSAIEEDIAPFETNTEKRKKQYNKGKNEDAVRTVISFNKGGEWSYLKAPKVDSRGNKYECGDNCYLHLHGITNYHQYAPFYSIENAVGIIMGTGNVGSHLRYESDEVNTFLSRDGGVTWIEAHKGPYIYEYGDYGGLIVMADDLRKTNQIVFSWNEGQSWFDFELGQFSIDVDNIVAEPNSASVEFLVYGTRNDVGVLYHLDFNALGQPLCKGLWAADSVSSDYETWSPTSGNFNDKCILGRKITYTRRKQTSECFNGKDLKRTVDKKPCECTPEDYECETGFTRKIGSYECKPNDPTLTIEGCTSSSYFYANAYRKVPGDICVNGWVPEKVPVPCPSYAPFNKAAK
modifications: bait human Fc-tagged dimer; N-glycosylation sequons mutated in Plasmodium baits
binding score [1]: 19.2 | binding score [2]: 8.67 | binding score [3]: 5.84 | binding score [4]: 5.45 | binding score [5]: 11.5 | binding score [6]: 5.28 | binding score [7]: 5.11 | binding score [8]: 10.3 | binding score [9]: 16.2
